According to PMC3520743, “Bacillus cereus Fnr binds a [4Fe-4S] cluster and forms a ternary complex with ResD and PlcR” (BMC Microbiology, 2012):

Molecular target: the molecule itself
Experiment: SEC + other: SDS-PAGE under non-reducing conditions; analytical gel filtration chromatography and SDS-PAGE without DTT or beta-mercaptoethanol; apparent molecular mass ca. 60,000; dimer

B1: Bacillus cereus Fnr, recombinant tag-less apo-form (natural protein, Bacillus cereus F4430/73, UniProt A4GFD9 1-230, looked up)
chain: MANSMTLSQDLKELLASVEYKMQIKKGSFIFQEGMEATELYIIHSGKVQISKLSADGQELTLRICSAYDIIGELTLFTDNAKYLLNSKCLEDVEVGVIKREALEKELLQKPALVFEFMKWISEHLRRMQTKFRDLVLHGKKGALYSTLIRMTNSYGILKENGILIDLPLTNQELANFCATSRESVNRMLNELKKQGTISIHKGKITIHDLQFLKCEIACEDCSASVCSID
notes: also called apoFnr; tag-less Fnr; source: E. coli BL21 CodonPlus(DE3)-RIL (pET101fnr), aerobically grown, purified (DEAE-cellulose, hydroxyapatite, Superdex 200)
stoichiometry N: 2
